The source of these data is IntAct's records for PubMed 11777938.

The chains are these.
B1: Anaphase-promoting complex subunit 8 (Schizosaccharomyces pombe (strain ATCC 38366 / 972)), O94556 (parent)
chain: MTVSLNTMMGVDGLEDQEQLREIRNCLLKCISECSERGLVYAVRWAAEMLNGMNPIEMEHIPFSSTPTGEFDLDPDMANEKLLEVEEKNIYLLAKSYFDCKEFERAAYTLQNCKSSKSIFLRLYSKYLAGEKKSEEENETLLNTNLTLSSTNREFYYISEVLESLHYQGNKDPYLLYLSGVVYRKRKQDSKAIDFLKSCVLKAPFFWSAWLELSLSIDSLETLTTVVSQLPSTHIMTKIFYVYASHELHQVNSSAYEKLAEAEIIFPNSRYLKTQRALLTYDSRDFDEAESLFENILTNDPYRLDDMDTYSNVLFVLENKSKLGFLAQVASSIDKFRPETCSIIGNYYSLLSEHEKAVTYFKRALQLNRNYLSAWTLMGHEYVELKNTHAAIESYRLAVDVNRKDYRAWYGLGQTYEVLDMHFYALYYFQRATALRPYDQRMWQALGNCYEKIDRPQEAIKSYKRALLGSQTNSSILVRLGNLYEELQDLNSAASMYKQCIKTEETEISPETIKARIWLARWELGKKNYREAELYLSEVLNGDLELEEAKALLRELRSRMEHSYD
partner: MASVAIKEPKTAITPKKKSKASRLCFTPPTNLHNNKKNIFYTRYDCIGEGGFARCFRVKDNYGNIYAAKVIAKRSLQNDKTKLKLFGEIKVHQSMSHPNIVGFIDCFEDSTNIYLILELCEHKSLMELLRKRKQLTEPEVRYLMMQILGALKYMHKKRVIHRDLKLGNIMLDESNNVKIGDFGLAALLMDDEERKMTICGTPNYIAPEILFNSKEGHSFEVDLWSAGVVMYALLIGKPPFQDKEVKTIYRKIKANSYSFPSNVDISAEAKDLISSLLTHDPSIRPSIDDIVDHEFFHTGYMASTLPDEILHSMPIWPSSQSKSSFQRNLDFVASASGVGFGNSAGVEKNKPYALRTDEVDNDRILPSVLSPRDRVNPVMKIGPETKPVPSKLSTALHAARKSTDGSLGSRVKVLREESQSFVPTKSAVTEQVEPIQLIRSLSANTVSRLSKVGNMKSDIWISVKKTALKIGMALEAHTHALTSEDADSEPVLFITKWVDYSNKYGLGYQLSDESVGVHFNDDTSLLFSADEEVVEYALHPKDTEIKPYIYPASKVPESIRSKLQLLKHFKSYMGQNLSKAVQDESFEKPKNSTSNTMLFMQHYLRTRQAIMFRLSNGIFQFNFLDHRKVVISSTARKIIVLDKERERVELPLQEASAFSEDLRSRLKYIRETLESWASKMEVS

The variants in this assay derive from B1. The following applies: with plo1_schpo plo1, P50528.
Regarding S349N, the “effect of a mutation on the interaction” value was “decreasing interaction”.
